Assay: soluble on expression in E. coli; label from the status in PepcDB or PDB records

Sequence | soluble on expression in E. coli
NAKKPTMQLSDSGVDILIGSASYEGGELVLPTSITNQSSQSVIQVEVEVQVFDMSGKQLAKEKVTVWQSIKRMADTYLRPQQAEQGKSIKLAVPQSQQYQFSAKVLEVKTR | not soluble
NANDNVVIVGTGLAGVEVAFGLRASGWEGNIRLVGDATVIPHHLPPLSKAYLAGKATAESLYLRTPDAYAAQNIQLLGGTQVTAINRDRQQVILSDGRALDYDRLVLATGGRPRPLPVASGAVGKANNFRYLRTLEDAECIRRQLIADNRLVVIGGGYIGLEVAATAIKANMHVTLLDTAARVLERVTAPPVSAFYEHLHREAGVDIRTGTQVCGFEMSTDQQKVTAVLCEDGTRLPADLVIAGIGLIPNCELASAAGLQVDNGIVINEHMQTSDPLIMAVGDCARFHSQLYDRWVRIESVPNALEQARKIAAILCGKVPRDEAAPWFWSDQYEIGLKMVGLSEGYDRIIVRGSLAQPDFSVFYLQGDRVLAVDTVNRPVEFNQSKQIITDRLPVEPNLLGDESVPLKEIIAAAKAELSSAKAELSSAPRHHHHHH | soluble
NARTVVMVQFRDIEQETSMRRDLTRTEADLTRTEARLAAFLRNMAEGILVLDDDSRITYASEAASELLKVPVASLVGERFTEFCRAGQSRESVRRALELTTADGGSQSLRYEVELTPGERRWHAGSCQHIGIE | not soluble
NCRLFIGGIPKMKKREEILEEIAKVTEGVLDVIVYASAADKMKNRGFAFVEYESHRAAAMARRKLMPGRIQLWGHQIAVDWAEPEIDVDEDVMETV | soluble
NDPDADRFAVAARKADGEYQMLTGDQVGSLFGHYLLSQTDAHRQLVGNTIVSSSLLSKIAAAHGARYYQTLTGFKWLTNVAMQEQTEQHQFLFAYEEALGYTIGSTVWDKDGLSALVAFAQLAAELNAQGKTVWDQLEALYRQHGLHVN | not soluble
NENFRWKTAVNMSMNRNKVVSLHKDYKSFRYGSEGFSMAYDMWVKEGGKLGDIYGNGFERDENGKIKLNETGNPIKVTGNNTLLGNANPDALLGWSNTFTYKGFTLYFLIDARIGGDVMSLTQAHLDAMGVSKESGESRDRGYVEYEGIQFKDVPNFYGTVGGRNGISEYYMYDATNVRLRELTLGYSFPETLLAKTKFIKGLDLTLVARNLFFLYKDAPFDPDATLSVGNTLQGVDVFGMPTTRNIGFNVKFTF | not soluble
NHPTRPCTCAPGQVEKYLSRISGPLLDRIDIQVEITPVPFEKISDSRPAESSEKIRQRVVAAREIQSKRFADYSGVHCNAQMDDKLMNRYALPDEKGLQRLRTAMERFDLSARAYGRILKVARTIADLAGSEDVGGEHIAEAIGYRNLDRENWGKA | not soluble
NILKALLPTSTAGSLPKPAWLAEPETLWSPWKLQGEELTEGKHDALRLSLQDQQQAGIDIVSDGEQTRQHFVTTFIEHLNGVDFEKRKTVKIRDRYDASVPTVVGPVSRQKSVFVEDAKFLRQQTKQPIKWALPGPMTMIDTLYDDHYKSREKLAWEFAKILNQEAKELEAAGVDIIQFDEPAFNVFFDEVNDWGIACLERAIEGLNCETAVHICYGYGIKANTDWKKTLGSEWRQYEEAFPKLQKSNIDIISLECHNSHVPMELLELIRGKKVMVGAIDVASNTIETPEEVANTLRKALKFVDADKLYPCTNCGMAPLSHQVARGKLNALSAGAEIVRRELST | not soluble
NILTDGAIKKLTLNKLFERYMSTRELKESTRANYLKTWENRVKDEIGNIKVIQILPSHIKSFYSKLSKAGYAYSTIKFINNMIYPALEMAVDDDIIRKNPAKFSISDYGRQAEERIALTVLQQEKMLEFVKNNQVYNTYYPMLRIMLGTGVRCGELIGLTWEDVDVRTKAVSIDHQLIYKDLGDGYKFHISTPKTDSGIRTIPMTSDVQRAFEEQKKLNFMLQKGKDVEIDGYKGFIFMAKSGRPLMPSAINNILYNIVDAYNKKEVQIAKTEHRNAELLPTVSAHIMRHTACTRMAEKRMDVKVLQYIMGHAHIDVTMDVYNHVSEMSRIESEITRLESVAIS | not soluble
NLPDVQASKPSIAINLTRVGVTNMKKLVEIKRKDKRPIVLISTFDVFVDLPSDRKGANLSRNFEAVDEVLEKVLSTPVYEIEQLCSDIAHNLLGRHEYANQAEVRMKSEYMIRRASPSTGIKCQEVVNIFAEASAVRGNGDRDYFDVKKLIGAEVVGMTACPCAQEIMRDKAATELANLGVERDKIIKFLEKVPMATHNQRGRGIISIKVAHDFDVSLESIIKIIERSMSSSVYEVLKRSDEKVVVETAHMNPKFVEDCVRAMADNVVKEFPNLPDNAVITIKQTNEESI | not soluble
NLSVYNVQATNIPPKETLVYTKQTQTT | soluble
NNNRAPKEPTDPVTLIFTDIESSTALWAAHPDLMPDAVAAHHRMVRSLIGRYKCYEVKTVGDSFMIASKSPFAAVQLAQELQLCFLHHDWGTNALDDSYREFEEQRAEGECEYTPPTAHMDPEVYSRLWNGLRVRVGIHTGLCDIRHDEVTKGYDYYGRTPNMAARTESVANGGQVLMTHAAYMSLSAEDRKQIDVTALGDVALRGVSDPVKMYQLNTVPSRNFAALRLDREYFD | soluble
NPYETFRIADELRRELVGDTVTYVVNRNINFTDICINDCKFCSFRNRKKYLLSLDEIKQKVEEAVEFGCTELCIQGGLLPDADLDFYLSILQAVRDVDKKIHIHAFSPMEVVHAARNSGMTVEEVLKELKKEGLGSMPGTAAEILDDSIRALICPRKLKTAEWVEVIKTAHRVGIPTTATIMYGHIDTWEHRINHLLLIKKIQQETGGITELIPLPFMSKNNELGRYAKGSSGFDDLLMIAIARILLYPEIKNIQASWVKMGQKLAQAALHVGANDLGGTLMEENISKSAGATSGEFMHPEELRELIKIAGRVPKQR | not soluble
NQLSGLHSMEEQLAKKLQIKKCLVVQGDSDDTPWVREEMGRVAVEQLDMALTEKRNIVAVMGGSTMATVAEMMTTDFAKGRELLFVPGRGGIGEDLDNQANTICDKMATKTNTKHRVLYVPEQLGEEAYRSLLKEPAIQEGLRLVQSANAIILGIGDALAMAKRRHTGEDVLEKIIRRKAVGEAFGYYFDEQGEVVHKVPTFGLQFEDLAQIPHIIAVAGGTSKAKAIKSYMKSAPKNTILITDEGAAKSLLK | soluble
NSMAEFQYNLNLEEEKKQLEIENLCFENMKKQMEFTRRARHDLKHHMKAVHTMAENNECKKITEYIETYLEHVSLKKPLVYCTNFTLNALIVYYVQQAEAHKIKLKLNIELPEETNVKEADLTVLFGNLLENAIDACDEVQENKRYINLKIYKPNSDSIVFYIENGFNGSIKKKNQQFLTTKANGNGIGIESVKYVVHKYNGDVNIKTDENKFIVSGVLLQPLDATK | not soluble
NYGMVPFAGIPYYACPFGRDSIITSWFLLPYYPQYAEGTLKFFAKIQGKKFNPLNEEEPGKIPHEFRFGELSHSRKMPFAPYYGTVDATPLYVILAAEYLRWTGDRELIERLKPNLTAAVEWILRRLDEGGGYIRYKGGLLANQGWKDSKEGIPTEEGTPTKPPVALVEVQGYAYKALMDAASLGLTSLDPKMLKKEAEELKKRFNKDFWCDGFYALALDGDNVPSKVVSSNMGHLLFTGIAEHQEKIAERLFEEDMFSGWGIRTLSSKEKAYNPFSYHNGSIWPHDNAVIAIGLASIGEKEKARMLAEAIFKTAKFLPNSQLPELFSGLESEYPLLCPRANAPQAWSAASVFALLTALLGLKA | not soluble
NYKREIKQVENYLSARRESGHFIGKENIDIYYEKYVIPNSKNSIVISHGFRESMVKYNETIYYFLKNGYSVYGLEHRGHARSGRLGKDSTQTSVDNFDYYVDDFKKYVDTIVEPDNRGKNLFLYAHSMGGAIGGLFLERYPKYFKAAVLSSPMFEVDTGRYPEFLSRAVASVFNFVNLGDTYAPGHHEYSCESDFENSCTTSNIRYDYYLDKTNKSRKIENGGASFKWVKESLKATDEVTDGKNASKVTIPVLLFQAENDDIVRPGGQDKFAKEAKKCKLIVIKNSKHEIYREKDSIMVPYFNKVFTFLNNNK | not soluble
PASQTAANNLGGALNFSVENRTVKRIKFRYNVAKPITTEGLSKLSKGLGEAFLDNTTKAKLAELADPLNARYTGKKPDEVIQAQLDGLEELFADIPPPKDNDKQYKALRDLKRAAVEHRASANKHSVMDNARFETSKTNLSGLSSESILTKIMSSVRDASAPGNATRVAEFMRQDPKLRAMLKEMEGSIGTLARVRLEPKDSLVDKIDEGSLNGTMTQSDLSSMLEDRNEMRIKRLVVFHTATQAENFTSPTPLVSYNSGANVSVTKTLGRINFVYGADQDKPIGYTFDGELSRPSASLKEAAGDLKKEGFELKS | not soluble

Source: the DeepSol protein solubility set
